Test results: the RNAGym collection of RNA variant scans (doi:10.1073/pnas.2313332121)

B1: TPR t1 (parent)
chain: GACCAAUCUGCCCUCAGAGCUCGAGAACAUCUUCGGAUGCAGAGGAGGCAGGCUUCGGUGGCGCGAUAGCGCCAACGUCCUCAACCUCCAAUGCAUCCCACCACAUGAUGAUGCCUGAAGAGCCUUGGUUUUUUG

Variants of: B1
Test: polymerase ribozyme fitness, log enrichment relative to wild type (log ratio); higher = more active; in vitro selection for triplet polymerase activity
In short: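 Mutant libraries of each subunit of a heterodimeric triplet polymerase ribozyme were built by PCR and transcribed. Each library went through one round of in vitro selection in triplicate: annealing with biotinylated primer, partner subunit and triplets, frozen incubation at −7 °C, gel excision of extended constructs, streptavidin-bead capture and RT-PCR. Input and output libraries were Illumina-sequenced; only genotypes with ≥10 input reads and ≥1 read per output were kept. Fitness is log2(genotype enrichment/wild-type enrichment), using inverse-variance-weighted replicate averages.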

Variant | polymerase ribozyme fitness (log ratio)
A91G A100C A111U A121G | -3.81
A91G C97A A118U | -5.26
A91G U106G A111G | -3.06
A91G U112A G127C | -1.56
A91G U125A | -0.619
A91U | -1.81
A91U A121C C124A | 0.449
A91U C98U | -3.3
A91U C115G | -2.97
A91U C115U | -2.04
A91U U96G G120U | -1.75
A91U U109A | -8.07
A91U U112A G117C C123U U134A | -2.54
U92A A108U U112C G113A A121G | -6.52
U92A A111G | -3.82
U92A A119G G127C | -2.05
U92A C123A | -3.22
U92A C123G | -0.636
U92A C124U | -1.43
U92A G110A | -5.07
U92A G110C | -6.13

Variant | polymerase ribozyme fitness (log ratio)
U92A U106C C114A | -4.09
U92A U109G | -5.94
U92A U116C | -3.44
U92C C123G | 0.159
U92C U132C | -1.85
U92G A108U U112A G113A | -6.92
U92G C97U G110U | -5.82
U92G C101A | -4.03
U92G C123A | -2.78
U92G U109A C124A U131A | -6.86
G93A A95C A121U | 0.651
G93A A95G | -1.81
G93A C98U C124G | 0.653
G93A C104A G113C | -4.27
G93A C114A A118C | -3.7
G93A C115G | -2.4
G93A C123A | 0.264
G93A G113U C114G | -2.9
G93A G117C | -3.87
G93A G117C U130G | -5.98
G93A G122A U125G | -3.18

Variant | polymerase ribozyme fitness (log ratio)
G93A U132A | -1.15
G93C A121U U133G | 1.15
G93C C102A U116G | -5.28
G93C C114G | -4.17
G93C C123G | -0.285
G93C G110U G120A | -3.34
G93C G117C | -4.74
G93C G120C | -1.19
G93C G120U | -1.78
G93C G127A | -1.89
G93C G135C | -1.15
G93C U106C U112C | 0.785
G93C U109A G117U G120C | -6.83
G93C U112G | -0.938
G93C U129A | -1.91
G93U C115A | -2.49
G93U C115U | -1.63
G93U C124G | 0.697
G93U G117U | -3.63
G93U G120A U125A | 0.0882
G93U U96G C124A | 0.232

Variant | polymerase ribozyme fitness (log ratio)
G93U U112G | -1.63
G93U U132C | -1.31
G93U U133A | -0.793
C94A A105U A121C | -2.21
C94A A111U | -0.728
C94A C98A | -6.59
C94A C114A G122A | -3
C94A C115U | -2.44
C94A C123U | 0.185
C94A G110A | -2.19
C94A G117U U129A | -4.44
C94A G120C | -1.64
C94A G135U | -1.66
C94A U112A | 1.02
C94G C101U | -1.46
C94G C102A | -3.54
C94G C123A C124A | 1.47
C94G U106A | -1.14
C94G U109C A121U | -6.64
C94G U131G U132G | -1.88
C94U A95C | -1.19
